Results taken from US5837516A, “Subtilisin variants capable of cleaving substrates containing basic residues” (Genentech, Inc., priority 1995, dated 1998).
Residues, ends and D or L forms follow the SMILES beside them.

Legend:
[1] = molecular target: T1, subtilisin BPN' variant N62D/G166E (Bacillus amyloliquefaciens, UniProt P00782, G273E/N169D); test: Kinetic analysis, hydrolysis of suc-AAXX-pna substrates; assay type: biochemical; settings: Lys-Lys versus Lys-Phe substrate
T1 construct: correct folding and maturation of subtilisin requires autolytic cleavage of its propeptide; made in house; host or cells: Bacillus subtilis BG2036 (protease-deficient), secreted
Procedure: Despite the less than additive effects seen for the two charged substitutions in the S2 site, we decided to combine the best S2 site variant (N62D) with either of the acidic substitutions in the S1 site. The two double mutants, N62D/G166E and N62D/G166D, were analyzed with substrates having the form, suc-AAXX-pna (SEQ ID NO. 71) where XX was either KK (SEQ ID NO. 66), KR (SEQ ID NO. 67), KF (SEQ ID NO. 62), PK (SEQ ID NO. 58), PF (SEQ ID NO. 56) or AF (SEQ ID NO. 63) (FIG. 4). The wild-type preference was AF>PF^~ KF>KK^~ PK>KR, whereas the double mutants had the preference KK>KR>KF>PK^~ AF>PF. […]
Subtilisins were assayed by measuring the initial rates of hydrolysis of p-nitroanilide tetrapeptide substrates in 0.4 mL 20 mM Tris-Cl pH 8.2, 4% (v/v) dimethyl sulfoxide at (25±0.2)° C. as described previously (Estell, D. A., Graycar, T. P., Miller, J. V., Powers, D. B., Burnier, J. P., Ng, P. G. and Wells, J. A. (1986)Science 233:659-663). Enzyme concentrations (E)0 were determined spectrophotometrically using E280 nm 0.1%=1.17 (Matsubara, H.; Kasper, C B.; Brown, D. M.; and Smith, E. L. (1965)J. Biol. Chem.,240:1125-1130.), and were typically 5-50 nM in reactions. Initial rates were determined for nine to twelve different substrate concentrations over the range of 0.001-2.0 mM. […]

[2] = molecular target: T2, subtilisin BPN' variant N62D/G166D (mature enzyme SEQ ID NO: 72) (Bacillus amyloliquefaciens, UniProt P00782, G273D/N169D); test: Kinetic analysis, hydrolysis of succinyl-tetrapeptide-pNA substrates; assay type: biochemical
T2 construct: made in house; host or cells: Bacillus subtilis BG2036 (protease-deficient), secreted
T2 sequence (P00782 108-382 N169D/G273D): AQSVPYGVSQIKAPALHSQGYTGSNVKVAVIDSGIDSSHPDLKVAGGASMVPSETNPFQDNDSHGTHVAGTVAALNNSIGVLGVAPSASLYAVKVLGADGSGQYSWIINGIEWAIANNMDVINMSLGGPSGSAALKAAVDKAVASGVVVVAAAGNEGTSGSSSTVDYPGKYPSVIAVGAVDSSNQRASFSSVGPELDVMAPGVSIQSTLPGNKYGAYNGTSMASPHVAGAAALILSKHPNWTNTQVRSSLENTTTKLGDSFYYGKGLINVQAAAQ
Procedure: (§1) The mature N62D/Y104D/G166D variant was purified and analyzed for its ability to hydrolyze several tetrapeptide-pNA substrates.
(§2) Kinetic analysis of WT, N62D/G166D, and N62D/Y104D/G166D subtilisin BPN'
(§3) Subtilisins were assayed by measuring the initial rates of hydrolysis of p-nitroanilide tetrapeptide substrates in 0.4 mL 20 mM Tris-Cl pH 8.2, 4% (v/v) dimethyl sulfoxide at (25±0.2)° C. as described previously (Estell, D. A., Graycar, T. P., Miller, J. V., Powers, D. B., Burnier, J. P., Ng, P. G. and Wells, J. A. (1986)Science 233:659-663). Enzyme concentrations (E)0 were determined spectrophotometrically using E280 nm 0.1%=1.17 (Matsubara, H.; Kasper, C B.; Brown, D. M.; and Smith, E. L. (1965)J. Biol. Chem.,240:1125-1130.), and were typically 5-50 nM in reactions. Initial rates were determined for nine to twelve different substrate concentrations over the range of 0.001-2.0 mM. Plots of initial rates (v) versus substrate concentration (S) were fitted to the Michaelis-Menton equation, [formula] to determine the kinetic constants kcat and Km (Fersht, A. in "Enzyme Structure and Mechanism", Second edition, Freeman and Co., N.Y.) using the program Kaleidagraph (Synergy Software, Reading, Pa.).

[3] = molecular target: T3, subtilisin BPN' variant N62D/Y104D/G166D (SEQ ID NO: 75) (Bacillus amyloliquefaciens, UniProt P00782, G273D/N169D/Y211D); test: as above; assay type: biochemical; settings: relative to succinyl-RAKR-pNA
T3 construct: the mature enzyme +1 to +275; made in house; host or cells: Bacillus subtilis BG2036 (protease-deficient), secreted
T3 sequence (P00782 108-382 N169D/Y211D/G273D): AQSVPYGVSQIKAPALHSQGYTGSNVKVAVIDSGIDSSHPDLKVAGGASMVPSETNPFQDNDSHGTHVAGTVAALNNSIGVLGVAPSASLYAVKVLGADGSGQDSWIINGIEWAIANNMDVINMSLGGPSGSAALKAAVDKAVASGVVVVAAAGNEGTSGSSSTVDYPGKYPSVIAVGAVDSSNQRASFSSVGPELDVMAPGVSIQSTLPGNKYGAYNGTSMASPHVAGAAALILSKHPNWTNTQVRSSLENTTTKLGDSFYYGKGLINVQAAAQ
Procedure: as §1, §2, §3

succinyl-AAKR-pNA = molecular target: T4, succinyl-AAKR-pNA
T4 sequence (peptide, N-terminal succinyl; C-terminal p-nitroanilide (pNA)): AAKR

succinyl-AAPF-pNA = molecular target: T5, succinyl-AAPF-pNA
T5 sequence (peptide, N-terminal succinyl; C-terminal p-nitroanilide (pNA)): AAPF

[4] = substrate: C[C@H](NC(=O)CCC(=O)O)C(=O)N[C@@H](C)C(=O)N1CCC[C@H]1C(=O)N[C@@H](Cc1ccccc1)C(=O)Nc1ccc([N+](=O)[O-])cc1; test: Kinetic analysis, hydrolysis of succinyl-tetrapeptide-pNA substrates; assay type: biochemical, Bacillus amyloliquefaciens; settings: other: WT, 20 mM Tris-Cl pH 8.2, 4% DMSO, 25 C
Procedure: as §1, §2, §3

[5] = substrate: C[C@H](NC(=O)CCC(=O)O)C(=O)N[C@@H](C)C(=O)N[C@@H](CCCCN)C(=O)N[C@@H](CCCNC(=N)N)C(=O)Nc1ccc([N+](=O)[O-])cc1; test: as above; assay type: biochemical, Bacillus amyloliquefaciens; settings: other: WT, 20 mM Tris-Cl pH 8.2, 4% DMSO, 25 C
Procedure: as §1, §2, §3

T1 sequence (P00782 108-382 N169D/G273E): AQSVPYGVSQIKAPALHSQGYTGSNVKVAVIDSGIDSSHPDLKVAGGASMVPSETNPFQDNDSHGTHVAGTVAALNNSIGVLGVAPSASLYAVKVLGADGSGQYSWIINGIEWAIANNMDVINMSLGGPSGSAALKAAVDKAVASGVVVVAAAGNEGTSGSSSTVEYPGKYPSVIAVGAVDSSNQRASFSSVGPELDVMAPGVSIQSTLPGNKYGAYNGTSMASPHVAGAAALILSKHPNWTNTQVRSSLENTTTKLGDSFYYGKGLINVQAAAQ

C[C@H](NC(=O)CCC(=O)O)C(=O)N[C@@H](C)C(=O)N[C@@H](CCCCN)C(=O)N[C@@H](CCCCN)C(=O)Nc1ccc([N+](=O)[O-])cc1 [Lys-Lys substrate] (HELM PEPTIDE1{[O=C(O)CCC(=O)[*:2]].A.A.K.K.[O=[N+]([O-])c1ccc(N[*:1])cc1]}$$$$V2.0) was tested, and the “ratio of catalytic efficiencies, times faster cleaved than the Lys-Phe substrate” value [1] was “about 8 times” and the “ratio of catalytic efficiencies, times faster cleaved than the Lys-Phe substrate” value ([2]; Lys-Lys versus Lys-Phe substrate) was 18 times.

With C[C@H](NC(=O)CCC(=O)O)C(=O)N[C@@H](C)C(=O)N[C@@H](CCCCN)C(=O)N[C@@H](CCCNC(=N)N)C(=O)Nc1ccc([N+](=O)[O-])cc1 [succinyl-AAKR-pNA] (HELM PEPTIDE1{[O=C(O)CCC(=O)[*:2]].A.A.K.R.[O=[N+]([O-])c1ccc(N[*:1])cc1]}$$$$V2.0) the “ratio of catalytic efficiency for succinyl-AAKR-pNA versus succinyl-AAPF-pNA” value [2] was 1.9×10^2 and the “catalytic efficiency (kcat/Km), fold less efficiently hydrolyzed than succinyl-RAKR-pNA” value [3] was 60 fold.

B1: subtilisin BPN' from Bacillus amyloliquefaciens, wild type (WT), SEQ ID NO: 90 (Bacillus amyloliquefaciens) (protein)
chain: AQSVPYGVSQIKAPALHSQGYTGSNVKVAVIDSGIDSSHPDLKVAGGASMVPSETNPFQDNNSHGTHVAGTVAALNNSIGVLGVAPSASLYAVKVLGADGSGQYSWIINGIEWAIANNMDVINMSLGGPSGSAALKAAVDKAVASGVVVVAAAGNEGTSGSSSTVGYPGKYPSVIAVGAVDSSNQRASFSSVGPELDVMAPGVSIQSTLPGNKYGAYNGTSMASPHVAGAAALILSKHPNWTNTQVRSSLENTTTKLGDSFYYGKGLINVQAAAQ
notes: correct folding and maturation of subtilisin requires autolytic cleavage of its propeptide
Work on B1 yielded a kcat/Km, hydrolysis of succinyl-tetrapeptide-pNA (succinyl-AAKR-pNA) of 1700 M⁻¹ s⁻¹, a kcat/Km, hydrolysis of succinyl-tetrapeptide-pNA (succinyl-AAPF-pNA) of 260000 M⁻¹ s⁻¹ and a Km [4] of 110 µM. The kcat [4] was 29 s⁻¹, the kcat/Km [4] was 260000 M⁻¹ s⁻¹ and the Km [5] was 1700 µM. For the same molecule, the kcat [5] was 2.8 s⁻¹.
